Reference: patent publication US20140087995A1 (published 2014)
Numbered stars: 1 amine (or outer) side, 2 acyl side, 3 side chain; on linkers, the order of the positions; unused ones are H or OH. Bridge positions count the residues as written; N and C are the ends. Side chains are listed from the residue outwards. Ends that are not written are not given here. * marks the point of attachment. C20 diacid = O=C(O)CCCCCCCCCCCCCCCCCCC(=O)*; γGlu = O=C(O)[C@H](CCC(=O)[*:2])N[*:1]; AEEA = NCCOCCOCC(=O)O

T1: human calcitonin receptor (human, UniProt P30988 25-474)
T1 sequence (looked up): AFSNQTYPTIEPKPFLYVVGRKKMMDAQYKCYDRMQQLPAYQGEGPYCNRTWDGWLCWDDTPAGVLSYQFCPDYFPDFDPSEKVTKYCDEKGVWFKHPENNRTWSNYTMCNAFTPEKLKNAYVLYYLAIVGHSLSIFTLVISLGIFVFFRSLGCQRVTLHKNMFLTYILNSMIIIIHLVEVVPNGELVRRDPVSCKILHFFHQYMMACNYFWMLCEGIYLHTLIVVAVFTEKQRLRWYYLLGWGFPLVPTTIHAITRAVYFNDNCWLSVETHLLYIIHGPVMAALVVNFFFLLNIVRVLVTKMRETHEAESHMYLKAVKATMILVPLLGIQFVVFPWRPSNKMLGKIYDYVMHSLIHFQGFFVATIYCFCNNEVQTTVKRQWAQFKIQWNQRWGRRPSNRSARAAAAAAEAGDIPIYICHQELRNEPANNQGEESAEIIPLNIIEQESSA

B1: N^ε1-[2-[2-[2-(19-carboxynonadecanoylamino)ethoxy]ethoxy]acetyl]-[Arg17,Pro21,Pro27,His34]-h-amylin (peptide)
peptide: K([AEEA-C20 diacid])CNTATCATQRLANFLRHSSPNFGAIPSSTNVGHNTY-NH2
modifications: disulfide 2-7; N-terminus assumed
SMILES: CC[C@H](C)[C@H](NC(=O)[C@H](C)NC(=O)CNC(=O)[C@H](Cc1ccccc1)NC(=O)[C@H](CC(N)=O)NC(=O)[C@@H]1CCCN1C(=O)[C@H](CO)NC(=O)[C@H](CO)NC(=O)[C@H](Cc1c[nH]cn1)NC(=O)[C@H](CCCNC(=N)N)NC(=O)[C@H](CC(C)C)NC(=O)[C@H](Cc1ccccc1)NC(=O)[C@H](CC(N)=O)NC(=O)[C@H](C)NC(=O)[C@H](CC(C)C)NC(=O)[C@H](CCCNC(=N)N)NC(=O)[C@H](CCC(N)=O)NC(=O)[C@@H](NC(=O)[C@H](C)NC(=O)[C@@H]1CSSC[C@H](NC(=O)[C@@H](N)CCCCNC(=O)COCCOCCNC(=O)CCCCCCCCCCCCCCCCCCC(=O)O)C(=O)N[C@@H](CC(N)=O)C(=O)N[C@@H]([C@@H](C)O)C(=O)N[C@@H](C)C(=O)N[C@@H]([C@@H](C)O)C(=O)N1)[C@@H](C)O)C(=O)N1CCC[C@H]1C(=O)N[C@@H](CO)C(=O)N[C@@H](CO)C(=O)N[C@H](C(=O)N[C@@H](CC(N)=O)C(=O)N[C@H](C(=O)NCC(=O)N[C@@H](Cc1c[nH]cn1)C(=O)N[C@@H](CC(N)=O)C(=O)N[C@H](C(=O)N[C@@H](Cc1ccc(O)cc1)C(N)=O)[C@@H](C)O)C(C)C)[C@@H](C)O
notes: also called compound 91
B2: N^ε1-[2-[2-[2-[[2-[2-[2-[[(4S)-4-carboxy-4-(19-carboxynonadecanoylamino)butanoyl]amino]ethoxy]ethoxy]acetyl]amino]ethoxy]ethoxy]acetyl]-[Arg17,Pro21,Pro27,His34 … (peptide)
peptide: K([AEEA-AEEA-γGlu-C20 diacid])CNTATCATQRLANFLRHSSPNFGAIPSSTNVGHNTY-NH2
modifications: disulfide 2-7; N-terminus assumed
SMILES: CC[C@H](C)[C@H](NC(=O)[C@H](C)NC(=O)CNC(=O)[C@H](Cc1ccccc1)NC(=O)[C@H](CC(N)=O)NC(=O)[C@@H]1CCCN1C(=O)[C@H](CO)NC(=O)[C@H](CO)NC(=O)[C@H](Cc1c[nH]cn1)NC(=O)[C@H](CCCNC(=N)N)NC(=O)[C@H](CC(C)C)NC(=O)[C@H](Cc1ccccc1)NC(=O)[C@H](CC(N)=O)NC(=O)[C@H](C)NC(=O)[C@H](CC(C)C)NC(=O)[C@H](CCCNC(=N)N)NC(=O)[C@H](CCC(N)=O)NC(=O)[C@@H](NC(=O)[C@H](C)NC(=O)[C@@H]1CSSC[C@H](NC(=O)[C@@H](N)CCCCNC(=O)COCCOCCNC(=O)COCCOCCNC(=O)CC[C@H](NC(=O)CCCCCCCCCCCCCCCCCCC(=O)O)C(=O)O)C(=O)N[C@@H](CC(N)=O)C(=O)N[C@@H]([C@@H](C)O)C(=O)N[C@@H](C)C(=O)N[C@@H]([C@@H](C)O)C(=O)N1)[C@@H](C)O)C(=O)N1CCC[C@H]1C(=O)N[C@@H](CO)C(=O)N[C@@H](CO)C(=O)N[C@H](C(=O)N[C@@H](CC(N)=O)C(=O)N[C@H](C(=O)NCC(=O)N[C@@H](Cc1c[nH]cn1)C(=O)N[C@@H](CC(N)=O)C(=O)N[C@H](C(=O)N[C@@H](Cc1ccc(O)cc1)C(N)=O)[C@@H](C)O)C(C)C)[C@@H](C)O
notes: also called compound 97

Biological target: T1, human calcitonin receptor
Experiment: cell-based or functional assay

| Binder | hCTR funct. EC50 (pM) |
| --- | --- |
| B1 | 1480 pM |
| B2 | 11800 pM |
